How the values were obtained:
FcγRIIIa F158 (human) [1] = molecular target: FcγRIIIa F158 (human) (UniProt P08637); assay: SPR (Biacore 8K), receptor captured via anti-His antibody
FcγRIIb = FcγRIIb (UniProt P31994); assay: as above
FcγRIIIa V158 (human) [2] = molecular target: FcγRIIIa V158 (human) (UniProt P08637); assay: as above
FcγRIIIa F158 (human) [3] = molecular target: FcγRIIIa F158 (human) (UniProt P08637); assay: SPR (Biacore 8K), ratio of 1/Kd values
FcγRIIIa V158 (human) [4] = molecular target: FcγRIIIa V158 (human) (UniProt P08637); assay: SPR (Biacore 8K), ratio of 1/Kd values

Sequence of FcγRIIIa F158 (human) (P08637 17-208 limits assumed): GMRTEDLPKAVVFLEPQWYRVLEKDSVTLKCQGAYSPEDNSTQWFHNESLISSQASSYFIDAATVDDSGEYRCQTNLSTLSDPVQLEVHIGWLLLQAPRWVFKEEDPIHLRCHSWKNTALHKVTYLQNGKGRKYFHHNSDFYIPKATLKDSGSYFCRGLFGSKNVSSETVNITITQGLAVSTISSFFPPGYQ
Sequence of FcγRIIIa V158 (human) (P08637 17-208 F176V limits assumed): as the sequence (P08637 17-208 limits assumed) above, with F160V counted along it
Sequence of FcγRIIb (P31994 46-217 limits assumed): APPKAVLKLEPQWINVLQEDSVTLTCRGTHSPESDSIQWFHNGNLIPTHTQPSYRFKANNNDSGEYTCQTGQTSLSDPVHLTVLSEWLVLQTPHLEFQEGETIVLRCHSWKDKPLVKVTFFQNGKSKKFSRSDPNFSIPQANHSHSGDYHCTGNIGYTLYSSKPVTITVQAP

With Zolbetuximab (antibody) the Kd (FcγRIIIa F158 (human) [1]) was 423 nM, the Kd (FcγRIIb) was 13900 nM and the Kd (FcγRIIIa V158 (human) [2]) was 86.4 nM. For the same substance, the A/I (F158), affinity towards FcγRIIIa over affinity towards FcγRIIb (FcγRIIIa F158 (human) [3]) was 32.9 and the A/I (V158), affinity towards FcγRIIIa over affinity towards FcγRIIb (FcγRIIIa V158 (human) [4]) was 161.

From patent US20240294594A1
